Among the data in the supplement of paper PMC10126150 are switch fluorescence ratio values, retold here.

± gives the standard deviation of the averaged measurements.

The data set relates to ATP. Put plainly: switch fluorescence ratio, 500 uM ATP over buffer (Cy3 cluster intensity, sum of 5 cycles each) (fold (ratio)); higher = stronger signal-on switching upon ATP binding; sequences stand for … in TCGTCGGCAGCGTCAGATGTGTATAAGAGACAGTTTTTTTTTTTTTTTTTTTTTTTTT…TC. The following applies: aptamer strand: ATP DNA aptamer (quencher-CACCTGGGGGAGTATTGCGGAGGAAGG + anchor), 100 nM annealed; ATP concentration: 500 uM. Put shortly: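 Five buffer/ATP imaging cycles were run on Cy3-labelled switching-strand clusters on a modified Illumina MiSeq flow-cell, with NaOH stripping and re-annealing between cycles. In each cycle, clusters annealed to 100 nM quencher-labelled ATP aptamer were imaged in selection buffer, then after 15 min with 500 uM ATP at 22 °C. Per cluster, the fluorescence ratio is summed target-cycle over summed buffer-cycle Cy3 intensity, averaged per switch-domain sequence. Only clusters within 100-1000 RFU were kept.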
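Note: ATP exposure 15 min at 22 °C before imaging.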

Turning to AGATGTCAGC, the switch fluorescence ratio stood at 0.9708 ± 0.0063.
With AGATGTCGTT, the switch fluorescence ratio is 0.997 ± 0.039.
Consider AGATTCGTCA, for which the switch fluorescence ratio was 0.988 ± 0.018.
Next, AGATTGGATA: 1.01 ± 0.036; AGATTGGGCT: 0.997 ± 0.03; AGATTTAAAG: 0.98 ± 0.034.
Next, AGATTTAAGT: 0.985 ± 0.022; AGATTTGAGC: 0.972 ± 0.035; AGATTTGTCG: 0.993 ± 0.068.
The result for AGATTTTAGG reads 0.988 ± 0.012.
AGCAAAAAGG: the switch fluorescence ratio came to 0.997 ± 0.054.
The result for AGCAAACTTA reads 1.14 ± 0.043; that for AGCAAATTCG, 1.04 ± 0.016; that for AGCAAGGGCG, 1.06 ± 0.074.
As to AGCAATCGGT, the switch fluorescence ratio was found to be 1.6 ± 0.42.
For AGCAATTTCG, the switch fluorescence ratio came to 1.42 ± 0.081.
The result for AGCACCGGGT reads 1.02 ± 0.018; that for AGCACGAAGG, 0.992 ± 0.04.
For the sequence AGCACTCTAT, the switch fluorescence ratio came out at 1.04 ± 0.024.
Take AGCACTTTAT: the switch fluorescence ratio came out at 1.05 ± 0.073.
Next, AGCAGACTGG: 0.988 ± 0.0033; AGCAGAGGGA: 1.01 ± 0.011; AGCAGAGGGT: 0.994 ± 0.04.
The result for AGCAGGAGGA reads 1 ± 0.031.
Regarding AGCAGGATGC, the switch fluorescence ratio stood at 0.987 ± 0.013.
The result for AGCAGGGTTG reads 1.029 ± 0.01; that for AGCAGGTGGC, 1.13 ± 0.045.
The result for AGCATATAGG reads 1.009 ± 0.0059; that for AGCATGGCTT, 1.04 ± 0.054; that for AGCATGGTTG, 1.01 ± 0.026.
Next, AGCATGTATC: 1.07 ± 0.012; AGCATTGTGA: 0.998 ± 0.051; AGCATTTAGG: 1.02 ± 0.035.
For AGCATTTCTT, the switch fluorescence ratio is 0.98 ± 0.042.
Next, AGCCATGATG: 0.979 ± 0.036; AGCCCGTCGT: 0.99 ± 0.022; AGCCCTCGTT: 1 ± 0.043.
Turning to AGCCGAAAGG, the switch fluorescence ratio was 1.024 ± 0.0025.
Next, AGCCGCGCAG: 1.035 ± 0.0056; AGCCGGGGGC: 1.004 ± 0.002.
The result for AGCCGGGTGT reads 1.34 ± 0.47.
Next, AGCCGTATGA: 1.013 ± 0.0087; AGCCTGATCT: 1.036 ± 0.0053; AGCCTGGGCT: 0.99 ± 0.014.
For AGCCTGTATG, the switch fluorescence ratio is 0.9542 ± 0.0046.
The result for AGCCTTAGGG reads 1 ± 0.02; that for AGCCTTTTTT, 0.982 ± 0.011.
The result for AGCGATGTCG reads 0.9885 ± 0.0014.
Next, AGCGATTCTG: 1.02 ± 0.032; AGCGCTGGCG: 1 ± 0.049.
As for AGCGGAAGAA, the switch fluorescence ratio was found to be 1.02 ± 0.024.
The result for AGCGGAGAGG reads 1.006 ± 0.0096; that for AGCGGAGTAT, 0.998 ± 0.063.
Consider AGCGGATTCT, for which the switch fluorescence ratio amounted to 0.984 ± 0.041.
Next, AGCGGATTGG: 1.02 ± 0.061; AGCGGATTTG: 0.966 ± 0.014; AGCGGCAACG: 1.08 ± 0.098.
The result for AGCGGCCTGG reads 0.992 ± 0.014; that for AGCGGCTAAT, 0.981 ± 0.011.
With AGCGGCTCGC, the switch fluorescence ratio was 1.007 ± 0.0047.
The result for AGCGGGGCGG reads 1.02 ± 0.017.
As to AGCGGGGCTG, the switch fluorescence ratio is 1.01 ± 0.029.
AGCGGGTCGG: the switch fluorescence ratio came to 1 ± 0.021.
Next, AGCGGTGTGC: 0.9738 ± 0.0031.
The result for AGCGGTTAAT reads 0.984 ± 0.019.
The result for AGCTAAAGGC reads 1.03 ± 0.032; that for AGCTAACGAC, 1.83 ± 0.067.
Consider AGCTATCAGC, for which the switch fluorescence ratio was found to be 1.01 ± 0.047.
As for AGCTCAGGGA, the switch fluorescence ratio turned out to be 1.04 ± 0.027.
The result for AGCTGAGGCT reads 0.999 ± 0.015; that for AGCTGAGGGG, 1.01 ± 0.012.
The result for AGCTGATACT reads 2 ± 0.061; that for AGCTGATTTT, 0.982 ± 0.033.
AGCTGGAACA: the switch fluorescence ratio stood at 1 ± 0.018.
Next, AGCTGGAATA: 1 ± 0.06.
The result for AGCTGGGGGG reads 0.982 ± 0.044; that for AGCTGGGGTC, 0.9851 ± 0.0063.
Next, AGCTGGGTTT: 1 ± 0.021; AGCTGTCTCA: 0.991 ± 0.017.
As for AGCTGTGATG, the switch fluorescence ratio came to 1.01 ± 0.058.
As for AGCTGTGTGT, the switch fluorescence ratio was found to be 1.012 ± 0.0047.
As for AGCTGTTTCA, the switch fluorescence ratio was determined as 0.973 ± 0.02.
Next, AGCTTTATTA: 0.9984 ± 0.0032; AGGAAAAACT: 1.02 ± 0.047; AGGAAAGGGC: 0.983 ± 0.034.
The result for AGGAACGCGC reads 1.02 ± 0.027; that for AGGAAGGGT, 0.9978 ± 0.0079; that for AGGAAGGTCG, 0.969 ± 0.013.
Next, AGGAAGGTTT: 0.993 ± 0.041; AGGAATATTT: 1.04 ± 0.095; AGGAATGAGG: 0.958 ± 0.011.
With AGGAATTCCG, the switch fluorescence ratio was determined as 0.992 ± 0.054.
The result for AGGAATTTAG reads 1.02 ± 0.03; that for AGGACAGATA, 1.01 ± 0.017.
The result for AGGACGCGAC reads 1.548 ± 0.014; that for AGGACGCTGG, 0.9449 ± 0.0088; that for AGGACGGCAG, 0.964 ± 0.13.
Next, AGGACTCTCA: 1.01 ± 0.032.
AGGACTTTCT: the switch fluorescence ratio is 1.036 ± 0.0013.
The result for AGGAGAAGAC reads 1.03 ± 0.049; that for AGGAGACTTA, 0.9877 ± 0.0047; that for AGGAGATGTA, 1.029 ± 0.0061.
The result for AGGAGCAAGG reads 1.26 ± 0.072; that for AGGAGCCTTT, 0.9927 ± 0.0011; that for AGGAGCTCTT, 0.998 ± 0.0056.
Next, AGGAGGGGAG: 1.024 ± 0.0053; AGGAGGGGTT: 1.01 ± 0.037; AGGAGGTATT: 0.99 ± 0.026.
For AGGAGGTTTG, the switch fluorescence ratio stood at 0.97 ± 0.015.
Take AGGAGTGCTG: the switch fluorescence ratio is 0.995 ± 0.052.
The result for AGGAGTTGGA reads 0.987 ± 0.013.
The result for AGGAGTTGGG reads 0.97 ± 0.046.
The result for AGGAGTTTGC reads 1.068 ± 0.0073; that for AGGATAAGCT, 1.1 ± 0.17.
Turning to AGGATAGATA, the switch fluorescence ratio came to 1 ± 0.012.
Next, AGGATAGCAA: 1.3 ± 0.023; AGGATAGGAG: 0.9957 ± 0.0014.
Next, AGGATAGGGG: 0.991 ± 0.026; AGGATATTGG: 1.01 ± 0.02.
Next, AGGATCATGG: 1.01 ± 0.021.
